According to article PMC4829482:

Key:
[1] = test system: CC(C)=CCC/C(C)=C/CC/C(C)=C/CO[P@@](=O)(O)OP(=O)(O)O; experiment: steady-state radiochemical kinetics; type: biochemical, Streptomyces citricolor; conditions: Mg2+ active site
purified protein = substrate: CC(C)=CCC/C(C)=C/CC/C(C)=C/CO[P@@](=O)(O)OP(=O)(O)O; experiment: purified protein; conditions: Mg2+ active site

Molecule | Km [1] [µM] | kcat [1] [s⁻¹] | Km (purified protein) [µM] | kcat (purified protein) [s⁻¹] | kcat/Km (purified protein) [M⁻¹ s⁻¹]
germacradien-4-ol synthase (GdolS) (Streptomyces citricolor; E307Q) | 2.24 ± 0.16 | 0.013 ± 0.0004 | – | – | –
germacradien-4-ol synthase (GdolS) (Streptomyces citricolor; D81E) | 0.82 ± 0.11 | 0.01 ± 0.0006 | – | – | –
germacradien-4-ol synthase (GdolS) (Streptomyces citricolor; Y303F) | 0.66 ± 0.12 | 0.014 ± 0.006 | – | – | –
germacradien-4-ol synthase (GdolS) (Streptomyces citricolor; D84E) | 0.92 ± 0.09 | 0.009 ± 0.0003 | – | – | –
germacradien-4-ol synthase (GdolS) (Streptomyces citricolor) (protein) MSDDTSLELPFTHRRNPHQTEAADRHLEWLQRHRELAAVVSGSTYTGWDITELASLVYPESSAEDLALAADLMGFYFLFDDQFDSPLGRRPEQVALICERLSAIAHGTLTAVTSPSERAFADLWRRITLGMTDRWRARAACNWEYYFACHPAEAAGRTIGQPPDREGYLTLRRGTAAMESIFDMIERLGHFEVPQHVMHHPLFRQLRQLAADIPSFTNDVRSFAQESERGDVANLVMIVRRDRCCSTEEACAVVWDEAQRMADRFCDLRDQLPDACRSMSLDPAQRLAAERYADGMALWLAGYLHWESHTRRYHHG | – | – | 1.07 ± 0.13 | 0.079 | 73800
